According to publication PMC9942873:
Positions count from the first letter of the chain named. Read-outs that look alike come from different tables or passages of the source.

B1: RUPA-47 (Fab) (Fab, V domains shown)
VH: QVQLVQSGAEVKKPGASVKLSCTASGYTFTNFGITWVRQAPGQGLEWMAWISVYSGDTDYAQRFQGRVTMTTDTSTRTAYMEMRSLSFDDTAVYYCVRGGRDSPILGGYWGQGTLVTVSS
VL: EIVLTQSPGTLSLSPGERVTLSCRASQSVRSMYLAWYQQKPGQAPRLLIHGASIRATGIPDRFSGSGSGTDFTLTISRLEREDFAVYYCHQYGSSPLTFGGGTKVESK
B2: RUPA-50 (hIgG1) (antibody, V domains shown)
VH: QVHLVESGGGVVQPGRSLRLSCAASGFTFRSYGMHWVRRVPGKGLEWVATISYDETFKDYPDSVKGRFTISRDNSKNTLFLQMNSLRPADTAVYYCAKDRAHSMHYFEYWGRGTLVTVSS
VL: SYELTQPPSVSVSPGQTARLTCSGDALPKKFAYWYQLKSGQAPVLVIYEDSKRPSGIPERFSGSSSGTTATLTISGAQVEDEADYYCYSRDGSGDQKNIFGGGTKLTVL
B3: RUPA-44 (Fab) (Fab, V domains shown)
VH: QLQLQESGPGLVKPSETLSLTCTVSGGSISRSPYYWGWIRQPPGKGLEWFGSIYNNGSTYYNPPLKSRLTISVDTSKNQFSLKLSSVTAADTAVYYCARHGGSTGMKVVVIAPPDYWGQGTLVTVSS
VL: DIQMTQSPATLSASVGDRVTITCRASQSISSWLAWYQQKPGEAPKLLIYKASSLQSGVPSRFSGSGSGTKFSLTISSLQPDDFATFYCQQYHSYPYTFGQGTKLEIK
B4: RUPA-117 (Fab) (Fab, V domains shown)
VH: B3 VH with I53V, P64S, L69V, V94L
VL: B3 VL with S31I, G66A
B5: RUPA-160 (hIgG1) (antibody, V domains shown)
VH: QVQLVQSGAEVKKPGASVKASCKASGYTFDNFDIIWARQATGQGLEWMGWMNPNTGKKGYAQNLKDRVTMTRDSSISTAYLELSSLRSEDTAVYYCVRAVGSYYGSGGWFDPWGQGTLVTVSS
VL: QSVLTQPPSASGTPGQRVTIACSGSSSNIGGNNVKWYQQLPGTAPKLVIYNNDERPPGVPDRVSGSKSGTSASLAISGVQSEDEADYYCATWDDSMKREVFGGGTKLTVL
B6: RUPA-54 (hIgG1) (antibody, V domains shown)
VH: QVQLVESGGGVVQPGRSLRLSCTASGFTFRSYGIHWVRQAPGKGLQWVAFISYDGRNKYYADSVKGRFTISRDNSKNTLYLQMSGLRADDTAVYYCAKDSDNDCTATSCYTVSWGQGTLVTVSS
VL: SYELTQPPSVSVSPGQTARITCSGDALPKKYAYWYQQKSGQAPVLVIYEDKKRPSGIPERFSGSSSGTMATLTISGAQVEDEADYYCYSTDSRTDHGGIFGGGTKLTVL
B7: RUPA-100 (hIgG1) (antibody, V domains shown)
VH: QVQLVESGGGVVQPGRSLRLSCAASGFSFSHYGMHWVRQAPGKGLEWVAVISYDGNYKYYGDSVKGRFTISRDNFKNTLYLQMNSLRPEDTAVYYCAKGKAHSCVSTSCYTDFWGQGTLVTVPS
VL: B6 VL with K51S, A83G, R93S, T94Y, D95N, G97R, I99V
B8: RUPA-29 (hIgG1) (antibody, V domains shown)
VH: QVHLVESGGGVVQPGRSLRLSCAASGFTFRSYGMHWVRLAPGKGLEWVTAIWYDGSKKHFADSVKGRFTISRDNSKNTLYLQMSSLRVEDTAVYYCARDFAHGAFYPVDWGRGTLVTVSS
VL: SYELTQPPSVSVSPGQTARITCSGDALPKKHAYWYQQKSGQAPVLVIYDDSKRPSGIPERFSGSSSGTMATLSISGAQVEDEAAYYCYSSDTSANYWVFGGGTKLTVL
B9: RUPA-29 (Fab) (Fab, V domains shown)
VH: B8 VH
VL: B8 VL

Columns and labels:
[1] = molecular target: Pfs48/45 in its native configuration on the female gamete surface membrane (Plasmodium falciparum NF54 (endogenous in gametes))
[2] = molecular target: Pfs48/45 in its native configuration on the female gamete surface membrane (Plasmodium falciparum NF54 (endogenous in gametes)); remark: listed apart in the source
[3] = molecular target: Pfs48/45 6C.mAgE1 (D320H; C terminal 6x HIS tag) (Plasmodium falciparum); assay: BLI
[4] = molecular target: Pfs48/45 6C.mAgE1 (K416N; C terminal 6x HIS tag) (Plasmodium falciparum); assay: BLI
[5] = molecular target: Pfs48/45 6C.mAgE1 (L314I; C terminal 6x HIS tag) (Plasmodium falciparum); assay: BLI
[6] = molecular target: Pfs48/45 6C.mAgE1 (S322N; C terminal 6x HIS tag) (Plasmodium falciparum); assay: BLI

Binder	other [2]	Kd [4]	further results
B1	–	–	other [1]: 100 % TRA
B2	> 80 % TRA	–	–
B3	–	< 20 nM	Kd [3]: < 20 nM; Kd [5]: < 20 nM; Kd [6]: < 20 nM
B4	–	< 20 nM	Kd [3]: < 20 nM; Kd [5]: < 20 nM; Kd [6]: < 20 nM
B5	80 % TRA	–	–
B6	> 80 % TRA	–	–
B7	> 80 % TRA	–	–
B8	> 80 % TRA	–	–
B9	–	109 nM	–
